{
  "source": "patent CN116744966A",
  "about": "(WISTAR INST; WEINER DAVID; MUTHUMANI KARTHIK; PARZACCHI …, dated 2023)",
  "binders": {"B1": {"name": "WCoVA7 (antibody, V domains shown)", "VH": "EVKLLESGGGLVQPGGSLKLSCAASGFDFSRYWMSWVRQAPGKGLEWIGEINPDSSTINYTPSLKDKFIISRDNAKNTLYLQMSKVRSEDTALYYCARIYYGSPGAMDYWGQGTSVTVSS", "VL": "SIVMTQTPKFLLVSAGDRVTITCKASQSVSNDVAWYQQKPGQSPKLLIYYASNRYTGVPDRFTGSGYGTDFTFTISTVQAEDLAVYFCQQDYFSPYTFGGGTKLEIK"}, "B2": {"name": "WCoVA9 (antibody, V domains shown)", "VH": "EVQLQQSGAELVKPGASVKLSCTASGFNIKDTYMHWVKQRPEQGLEWIGRIDPANGNTKYDPKFQAKATITANTSSNTAYLHLSSLTSEDTAVYYCAPYYDYVGAMDYWGQGTSVTVSS", "VL": "DIQMTQSPASQSASLGESVTITCLASQTIGTWLAWYQQKPGKSPQLLIYAATSLADGVPSRFSGSGSGTKFSFKISSLQAEDFVSYYCQQLYNTPLTFGGGTKLEIK"}},
  "key": {"[1]": {"target": "SARS-CoV-2 spike protein (wild type) on pseudovirus (SARS-CoV-2, UniProt P0DTC2 14-1273)", "experiment": "cell-based or functional assay"}, "[2]": {"target": "recombinant SARS-CoV-2-RBD (Sino Biological) (SARS-CoV-2, UniProt P0DTC2 319-541)"}},
  "data": [
    {"binder": "B1", "values": [
      {"measurement": "IC50, pseudovirus neutralisation (CHO-ACE2 cells, luciferase)", "setting": "[1]", "value": 2.6, "unit": "ng/mL"}
    ]},
    {"binder": "B2", "values": [
      {"measurement": "IC50, pseudovirus neutralisation (CHO-ACE2 cells, luciferase)", "setting": "[1]", "value": 4.9, "unit": "ng/mL"},
      {"measurement": "Kd", "setting": "[2]", "value": "< 1", "unit": "nM"}
    ]}
  ]
}
